# Measurements reported in patent US20160002357A1 (Pfizer, published 2016).
# Several values for one entry are separate records, joined by “and”; a condition that tells them apart may be missing. Equal values may be shown once. Read-outs that look alike come from different tables or passages of the source.
# T1: muP-cad-ECD (murine, UniProt P10287 100-647)
# T1 construct: extracellular domain; also called murine P-cadherin; murine P-cadherin ECD
# T1 sequence (looked up): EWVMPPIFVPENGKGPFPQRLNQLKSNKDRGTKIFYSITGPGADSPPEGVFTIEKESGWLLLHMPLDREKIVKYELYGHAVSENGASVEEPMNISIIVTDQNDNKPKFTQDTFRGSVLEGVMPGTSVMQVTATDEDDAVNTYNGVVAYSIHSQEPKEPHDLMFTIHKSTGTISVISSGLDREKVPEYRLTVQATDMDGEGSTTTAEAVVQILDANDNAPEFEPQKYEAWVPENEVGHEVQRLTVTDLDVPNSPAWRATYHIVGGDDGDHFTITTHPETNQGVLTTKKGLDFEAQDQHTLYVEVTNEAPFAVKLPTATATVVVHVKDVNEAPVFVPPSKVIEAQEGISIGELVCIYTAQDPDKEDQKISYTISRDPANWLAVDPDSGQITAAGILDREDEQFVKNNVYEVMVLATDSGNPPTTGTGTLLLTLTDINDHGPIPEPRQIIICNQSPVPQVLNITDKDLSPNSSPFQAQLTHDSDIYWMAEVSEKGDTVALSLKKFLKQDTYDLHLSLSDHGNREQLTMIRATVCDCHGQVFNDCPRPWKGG
# Legend:
# [1] = molecular target: T2, human P-cadherin expressed on the cell surface (human, UniProt P22223 108-829); assay: cell ELISA, H1650 cells
# T2 construct: also called SW480-huPcad; CHO-huPcad
# T2 sequence (P22223 108-829): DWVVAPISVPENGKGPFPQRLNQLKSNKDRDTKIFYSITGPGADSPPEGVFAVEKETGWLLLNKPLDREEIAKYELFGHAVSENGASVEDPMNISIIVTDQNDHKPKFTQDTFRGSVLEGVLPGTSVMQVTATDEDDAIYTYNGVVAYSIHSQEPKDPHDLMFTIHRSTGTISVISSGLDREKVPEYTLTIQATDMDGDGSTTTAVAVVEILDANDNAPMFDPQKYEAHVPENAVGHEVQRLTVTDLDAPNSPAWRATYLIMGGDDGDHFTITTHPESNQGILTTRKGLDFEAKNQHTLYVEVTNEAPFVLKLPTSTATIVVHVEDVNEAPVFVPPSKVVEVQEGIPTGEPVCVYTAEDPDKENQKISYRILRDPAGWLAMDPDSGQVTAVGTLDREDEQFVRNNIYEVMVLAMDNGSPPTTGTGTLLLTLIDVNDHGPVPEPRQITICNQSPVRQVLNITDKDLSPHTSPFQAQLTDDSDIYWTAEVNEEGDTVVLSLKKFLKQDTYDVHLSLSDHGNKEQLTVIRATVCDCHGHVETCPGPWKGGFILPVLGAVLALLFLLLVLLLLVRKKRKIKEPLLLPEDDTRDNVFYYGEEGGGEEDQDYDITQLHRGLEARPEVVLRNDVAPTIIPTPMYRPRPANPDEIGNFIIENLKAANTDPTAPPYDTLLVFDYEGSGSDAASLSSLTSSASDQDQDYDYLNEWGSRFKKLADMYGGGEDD
# huP-cad-ECD = molecular target: T3, huP-cad-ECD (human, UniProt P22223 108-654); assay: ELISA, recombinant protein
# T3 construct: extracellular domain; also called recombinant human P-cadherin; human P-cadherin-ECD
# T3 sequence (P22223 108-654): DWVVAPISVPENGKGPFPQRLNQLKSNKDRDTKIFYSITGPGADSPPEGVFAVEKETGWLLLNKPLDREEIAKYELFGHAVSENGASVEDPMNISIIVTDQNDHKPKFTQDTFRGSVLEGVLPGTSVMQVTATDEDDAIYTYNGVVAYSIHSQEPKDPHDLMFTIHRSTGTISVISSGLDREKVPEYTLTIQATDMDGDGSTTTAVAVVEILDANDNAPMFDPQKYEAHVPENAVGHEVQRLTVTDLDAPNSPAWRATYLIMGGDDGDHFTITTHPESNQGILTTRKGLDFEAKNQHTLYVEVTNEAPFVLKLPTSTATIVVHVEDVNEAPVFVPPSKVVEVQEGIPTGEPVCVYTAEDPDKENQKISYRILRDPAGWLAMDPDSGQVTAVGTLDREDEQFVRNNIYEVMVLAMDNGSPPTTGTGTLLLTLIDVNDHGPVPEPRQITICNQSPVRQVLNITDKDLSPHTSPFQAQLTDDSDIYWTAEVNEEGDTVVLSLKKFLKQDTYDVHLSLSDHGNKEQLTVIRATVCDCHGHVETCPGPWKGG
# huP-cad-ECD biotinylated = molecular target: T4, huP-cad-ECD biotinylated (human, UniProt P22223 108-654, biotinylated (sites not given)); assay: ELISA, recombinant protein
# T4 construct: extracellular domain
# T4 sequence (P22223 108-654): as above
# muP-cad-ECD [2] = molecular target: T1, muP-cad-ECD; assay: ELISA, recombinant protein
# [3] = molecular target: T2, human P-cadherin expressed on the cell …; assay: cell ELISA, CHO-huPcad cells
# [4] = molecular target: T2, human P-cadherin expressed on the cell …; assay: cell ELISA, SW480-huPcad cells
# P-cadherin ECD1-Fc = molecular target: T5, P-cadherin ECD1-Fc (human, UniProt P22223 108-215); assay: protein ELISA
# T5 construct: PACE was co-transfected for processing of the propeptide, so both are left out here; not shown: cleavable linker; hinge and CH2 and CH3 domains of human IgG1
# T5 sequence (P22223 108-215): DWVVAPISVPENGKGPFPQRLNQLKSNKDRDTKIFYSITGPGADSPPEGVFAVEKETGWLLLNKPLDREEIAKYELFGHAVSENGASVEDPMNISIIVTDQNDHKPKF
# P-cadherin ECD1-2-Fc = molecular target: T6, P-cadherin ECD1-2-Fc (human, UniProt P22223 108-328); assay: protein ELISA
# T6 construct: Signal peptide and pro-peptide of the construct left out (see ECD1-Fc); not shown: cleavable linker; hinge and CH2 and CH3 domains of human IgG1
# T6 sequence (P22223 108-328): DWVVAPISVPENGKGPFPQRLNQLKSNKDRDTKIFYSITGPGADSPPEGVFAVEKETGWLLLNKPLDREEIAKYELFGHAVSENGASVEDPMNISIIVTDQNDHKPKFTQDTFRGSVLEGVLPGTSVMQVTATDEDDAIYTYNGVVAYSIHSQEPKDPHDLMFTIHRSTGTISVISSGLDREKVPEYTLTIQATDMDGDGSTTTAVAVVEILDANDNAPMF
# muP-cad-ECD [5] = molecular target: T1, muP-cad-ECD; assay: SPR Biacore
# [6] = molecular target: T7, cynomolgus monkey P-cadherin ECD (cynomolgus monkey); assay: SPR Biacore
# T7 construct: extracellular domain; also called cyno P-cadherin ECD; Cyno P-cadherin
# [7] = molecular target: T2, human P-cadherin expressed on the cell …; assay: cell-based or functional assay
# [8] = molecular target: T7, cynomolgus monkey P-cadherin ECD; assay: SPR Biacore pH 7.4
# [9] = molecular target: T7, cynomolgus monkey P-cadherin ECD; assay: SPR Biacore affinity
# [10] = molecular target: T7, cynomolgus monkey P-cadherin ECD; assay: SPR Biacore, average
# [11] = molecular target: T2, human P-cadherin expressed on the cell …; assay: cell-based or functional assay; remark: listed apart in the source
# [12] = molecular target: T7, cynomolgus monkey P-cadherin ECD; assay: SPR Biacore pH 7.4, average
# [13] = molecular target: T7, cynomolgus monkey P-cadherin ECD; assay: SPR Biacore affinity; remark: listed apart in the source
# [14] = molecular target: T2, human P-cadherin expressed on the cell …; assay: cell-based or functional assay; remark: listed apart in the source
binder,measurement,setting,value
"35 scFv-Fc (Fc fusion, also called P-CAD 35; P-cadherin clone 35 scFv-Fc) VH: EVQLVQSGAEVKKPGASVKVSCKASGYTFTSYGISWVRQAPGQGLEWMGWISAYNGNTNYAQKLQGRVTMTTDTSTSTAYMELRSLRSDDTAVYYCATIDTASAFDIWGQGTMVTVSS VL: QSVLTQPPSVSAAPGQKVTISCSGSSSNIGNNYVSWYQQLPGTAPKLLIYDNNKRPSGIPDRFSGSKSGTSATLGITGLQTGDEADYYCGTWDSSLSAVVFGGGTKLTVL",EC50,[1],0.163 nM
same,EC50,huP-cad-ECD,2.5 nM
same,EC50,huP-cad-ECD biotinylated,0.0176 nM
same,binding result,muP-cad-ECD [2],no binding
same,EC50,[3],0.276 nM
same,EC50,[4],0.173 nM
"34 scFv-Fc (Fc fusion, also called P-CAD 34; P-cadherin clone 34 scFv-Fc) VH: EVQLVQSGAEVKKPGASVKVSCKASGYTFTSYGISWVRQAPGQGLEWMGWISAYNGNTNYAQKLQGRVTMTTDTSTSTAYMELRSLRSDDTAVYYCATIDTASAFDIWGQGTMVTVSS VL: QSVVTQPPSVSAAPGQKVTISCSGSSSNIGNNYVSWYQQLPGTAPKLLIYDNNKRPSGIPDRFSGSKSGTSATLGITGLQTGDEADYYCGTWDSSLSAWVFGGGTKLTVL",EC50,[1],0.494 nM
same,EC50,huP-cad-ECD,11.2 nM
same,EC50,huP-cad-ECD biotinylated,0.194 nM
same,binding result,muP-cad-ECD [2],no binding
same,EC50,[3],0.394 nM
same,EC50,[4],0.442 nM
"33 scFv-Fc (Fc fusion, also called P-CAD 33; P-cadherin clone 33 scFv-Fc) VH: QMQLVQSGAEVKKPGASVKVSCKASGYTFTSYGISWVRQAPGQGLEWMGWISAYNGNTNYAQKLQGRVTMTTDTSTSTAYMELRSLRSDDTAVYYCALIGSGVAFDIWGQGTMVTVSS VL: QSVLTQPPSVSAAPGQKVTISCSGSSSNIGNNYVSWYQQLPGTAPKLLIYDNNKRPSGIPDRFSGSKSGTSATLGITGLQTGDEADYYCGTWDSSLSAYVFGTGTKVTVL",EC50,[1],0.567 nM
same,EC50,huP-cad-ECD,3.46 nM
same,EC50,huP-cad-ECD biotinylated,0.101 nM
same,binding result,muP-cad-ECD [2],no binding
same,EC50,[3],0.493 nM
same,EC50,[4],0.424 nM
153 LP-DART (bispecific antibody) chain 1: QSVLTQPPSVSAAPGQKVTISCSGSSSNIGNNYVSWYQQLPGTAPKLLIYDNNKRPSGIPDRFSGSKSGTSATLGITGLQTGDEADYYCGTWDSSLSGVVFGGGTKLTVLGGGSGGGGEVQLVESGGGLVQPGGSLRLSCAASGFTFSTYAMNWVRQAPGKGLEWVGRIRSKYNNYATYYADSVKGRFTISRDDSKNSLYLQMNSLKTEDTAVYYCVRHGNFGNSYVSWFAYWGQGTLVTVSSGCPPCPAPEAAGAPSVFLFPPKPKDTLMISRTPEVTCVVVDVSHEDPEVKFNWYVDGVEVHNAKTKPREEQYNSTYRVVSVLTVLHQDWLNGKEYKCKVSNKALPAPIEKTISKAKGQPREPQVCTLPPSREEMTKNQVSLWCLVKGFYPSDIAVEWESNGQPENNYKTTPPVLDSDGSFFLYSKLTVDKSRWQQGNVFSCSVMHEALHNHYTQKSLSLSPG chain 2: QAVVTQEPSLTVSPGGTVTLTCRSSTGAVTTSNYANWVQQKPGQAPRGLIGGTNKRAPWTPARFSGSLLGGKAALTITGAQAEDEADYYCALWYSNLWVFGGGTKLTVLGGGGSGGGGEVQLVQSGAEVKKPGASVKVSCKASGYTFTSYGISWVRQAPGQGLEWMGWISAYNGNTNYAQKLQGRVTMTTDTSTSTAYMELRSLRSDDTAVYYCATIDTANAFGIWGQGTMVTVSSGCPPCPAPEAAGAPSVFLFPPKPKDTLMISRTPEVTCVVVDVSHEDPEVKFNWYVDGVEVHNAKTKPREEQYNSTYRVVSVLTVLHQDWLNGKEYKCKVSNKALPAPIEKTISKAKGQPREPQVYTLPPCREEMTKNQVSLSCAVKGFYPSDIAVEWESNGQPENNYKTTPPVLDSDGSFFLVSKLTVDKSRWQQGNVFSCSVMHEALHNHYTQKSLSLSPG,binding result,P-cadherin ECD1-Fc,no binding
same,binding result,P-cadherin ECD1-2-Fc,no binding
same,binding result,muP-cad-ECD [5],no binding
same,Kd,[6],0.683 nM and 0.359 nM
same,koff,[6],0.0002 s⁻¹ and 0.000209 s⁻¹
same,kon,[6],293000 M⁻¹ s⁻¹ and 581000 M⁻¹ s⁻¹
same,t½,[6],54.4 min and 52.2 min
same,"CTL assay on CHO P-cadherin cells, cell viability after 48 hours, EC50",[7],0.00041 nM
same,Kd,[8],0.683 nM and 0.359 nM
same,koff,[8],0.0002 s⁻¹ and 0.000209 s⁻¹
same,kon,[8],293000 M⁻¹ s⁻¹ and 581000 M⁻¹ s⁻¹
same,t½,[8],54.4 min and 52.2 min
same,Kd,[9],0.521 nM
same,Kd,[10],0.521 nM
same,DU145 CTL (LDH) EC50,[11],0.0006 nM
same,HCT116 CTL (Luc) EC50,[11],0.0004 nM
same,Kd,[12],0.521 nM
154 LP-DART (bispecific antibody) chain 1: QSVLTQPPSVSAAPGQKVTISCSGSSSNIGNNYVSWYQQLPGTAPKLLIYDNNKRPSGIPDRFSGSKSGTSATLGITGLQTGDEADYYCGTWDSSLSSYVFGTGTKVTVLGGGSGGGGEVQLVESGGGLVQPGGSLRLSCAASGFTFSTYAMNWVRQAPGKGLEWVGRIRSKYNNYATYYADSVKGRFTISRDDSKNSLYLQMNSLKTEDTAVYYCVRHGNFGNSYVSWFAYWGQGTLVTVSSGCPPCPAPEAAGAPSVFLFPPKPKDTLMISRTPEVTCVVVDVSHEDPEVKFNWYVDGVEVHNAKTKPREEQYNSTYRVVSVLTVLHQDWLNGKEYKCKVSNKALPAPIEKTISKAKGQPREPQVCTLPPSREEMTKNQVSLWCLVKGFYPSDIAVEWESNGQPENNYKTTPPVLDSDGSFFLYSKLTVDKSRWQQGNVFSCSVMHEALHNHYTQKSLSLSPG chain 2: QAVVTQEPSLTVSPGGTVTLTCRSSTGAVTTSNYANWVQQKPGQAPRGLIGGTNKRAPWTPARFSGSLLGGKAALTITGAQAEDEADYYCALWYSNLWVFGGGTKLTVLGGGGSGGGGEVQLVQSGAEVKKPGASVKVSCKASGYTFTSYGISWVRQAPGQGLEWMGWISAYNGNTNYAQKLQGRVTMTTDTSTSTAYMELRSLRSDDTAVYYCATIDTATAFDIWGQGTMVTVSSGCPPCPAPEAAGAPSVFLFPPKPKDTLMISRTPEVTCVVVDVSHEDPEVKFNWYVDGVEVHNAKTKPREEQYNSTYRVVSVLTVLHQDWLNGKEYKCKVSNKALPAPIEKTISKAKGQPREPQVYTLPPCREEMTKNQVSLSCAVKGFYPSDIAVEWESNGQPENNYKTTPPVLDSDGSFFLVSKLTVDKSRWQQGNVFSCSVMHEALHNHYTQKSLSLSPG,Kd,[6],5.47 nM and 5.53 nM
same,koff,[6],0.00332 s⁻¹ and 0.00343 s⁻¹
same,kon,[6],607000 M⁻¹ s⁻¹ and 620000 M⁻¹ s⁻¹
same,t½,[6],3.27 min and 3.18 min
same,Kd,[9],5.5 nM
same,Kd,[10],5.5 nM
same,DU145 CTL (LDH) EC50,[11],0.0017 nM
same,HCT116 CTL (Luc) EC50,[11],0.0072 nM
"153 VF-DART (bispecific antibody, One interchain disulfide between the Linker 2 cysteines; these linkers are left out of the letters., not shown: The C-terminal cysteine Linker 2 on each chain) chain 1: QSVLTQPPSVSAAPGQKVTISCSGSSSNIGNNYVSWYQQLPGTAPKLLIYDNNKRPSGIPDRFSGSKSGTSATLGITGLQTGDEADYYCGTWDSSLSGVVFGGGTKLTVLGGGSGGGGEVQLVESGGGLVQPGGSLRLSCAASGFTFSTYAMNWVRQAPGKGLEWVGRIRSKYNNYATYYADSVKGRFTISRDDSKNSLYLQMNSLKTEDTAVYYCVRHGNFGNSYVSWFAYWGQGTLVTVSS chain 2: QAVVTQEPSLTVSPGGTVTLTCRSSTGAVTTSNYANWVQQKPGQAPRGLIGGTNKRAPWTPARFSGSLLGGKAALTITGAQAEDEADYYCALWYSNLWVFGGGTKLTVLGGGGSGGGGEVQLVQSGAEVKKPGASVKVSCKASGYTFTSYGISWVRQAPGQGLEWMGWISAYNGNTNYAQKLQGRVTMTTDTSTSTAYMELRSLRSDDTAVYYCATIDTANAFGIWGQGTMVTVSS",Kd,[8],0.332 nM and 0.304 nM
same,koff,[8],0.00024 s⁻¹ and 0.000229 s⁻¹
same,kon,[8],722000 M⁻¹ s⁻¹ and 752000 M⁻¹ s⁻¹
same,t½,[8],45.4 min and 47.6 min
same,Kd,[13],0.31 nM
same,DU145 CTL (LDH) EC50,[14],0.0004 nM
same,HCT116 CTL (Luc) EC50,[14],0.0005 nM
same,Kd,[12],0.318 nM
"154 VF-DART (bispecific antibody, not shown: small tags and cut ends) chain 1: QSVLTQPPSVSAAPGQKVTISCSGSSSNIGNNYVSWYQQLPGTAPKLLIYDNNKRPSGIPDRFSGSKSGTSATLGITGLQTGDEADYYCGTWDSSLSSYVFGTGTKVTVLGGGSGGGGEVQLVESGGGLVQPGGSLRLSCAASGFTFSTYAMNWVRQAPGKGLEWVGRIRSKYNNYATYYADSVKGRFTISRDDSKNSLYLQMNSLKTEDTAVYYCVRHGNFGNSYVSWFAYWGQGTLVTVSS chain 2: QAVVTQEPSLTVSPGGTVTLTCRSSTGAVTTSNYANWVQQKPGQAPRGLIGGTNKRAPWTPARFSGSLLGGKAALTITGAQAEDEADYYCALWYSNLWVFGGGTKLTVLGGGGSGGGGEVQLVQSGAEVKKPGASVKVSCKASGYTFTSYGISWVRQAPGQGLEWMGWISAYNGNTNYAQKLQGRVTMTTDTSTSTAYMELRSLRSDDTAVYYCATIDTATAFDIWGQGTMVTVSS",Kd,[13],2.85 nM
same,DU145 CTL (LDH) EC50,[14],0.0024 nM
same,HCT116 CTL (Luc) EC50,[14],0.008 nM
